These are literature values, as cited in publication PMC3433420.

Like-named read-outs stand apart in the source and are kept apart here.

Settings in all cases: cited from earlier work
Data set [1] deals with SRC (Homo sapiens) (UniProt P12931).
Data set [2] deals with PIK3R2-NC (Homo sapiens) (UniProt O00459).
Data set [3] has as its target VAV3 (Homo sapiens) (UniProt Q9UKW4).
Data set [4] concerns the target SLA (Homo sapiens) (UniProt Q13239).
Data set [5] has as its target PIK3R1-C (Homo sapiens) (UniProt P27986).
The target of data set [6] is HCK (Homo sapiens) (UniProt P08631).
Sequence of HCK (Homo sapiens) (P08631 139-246): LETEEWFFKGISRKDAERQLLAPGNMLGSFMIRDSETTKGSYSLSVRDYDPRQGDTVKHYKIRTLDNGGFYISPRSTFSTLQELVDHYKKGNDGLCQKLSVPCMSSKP
The target in data set [7] is ABL2 (Homo sapiens) (UniProt P42684).
Sequence of ABL2 (Homo sapiens) (P42684 168-268): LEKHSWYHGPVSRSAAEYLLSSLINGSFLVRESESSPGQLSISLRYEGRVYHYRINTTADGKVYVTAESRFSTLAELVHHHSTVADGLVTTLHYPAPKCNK
Data set [8] has as its target TEC (Homo sapiens) (UniProt P42680).
Data set [9] concerns the target GRB7 (Homo sapiens) (UniProt Q14451).
In data set [10] the target is PLCG1-NC (Homo sapiens) (UniProt P19174).
Sequence of PLCG1-NC (Homo sapiens) (P19174 545-761): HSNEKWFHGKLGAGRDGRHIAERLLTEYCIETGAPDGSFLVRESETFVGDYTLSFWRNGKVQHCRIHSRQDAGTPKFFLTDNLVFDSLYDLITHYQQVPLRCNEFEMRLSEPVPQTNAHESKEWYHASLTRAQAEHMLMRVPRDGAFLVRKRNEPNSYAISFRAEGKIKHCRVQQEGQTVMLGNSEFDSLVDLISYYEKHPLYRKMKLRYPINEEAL
Data set [11] addresses FGR (Homo sapiens) (UniProt P09769).
The target in data set [12] is YES1 (Homo sapiens) (UniProt P07947).
Sequence of YES1 (Homo sapiens) (P07947 153-260): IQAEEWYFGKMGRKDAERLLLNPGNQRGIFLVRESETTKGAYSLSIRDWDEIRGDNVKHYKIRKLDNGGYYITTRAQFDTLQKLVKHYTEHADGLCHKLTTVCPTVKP
In data set [13] the target is VAV3 (Homo sapiens) (UniProt Q9UKW4). This is another data set of the same source.
Sequence of VAV3 (Homo sapiens) (Q9UKW4 667-771): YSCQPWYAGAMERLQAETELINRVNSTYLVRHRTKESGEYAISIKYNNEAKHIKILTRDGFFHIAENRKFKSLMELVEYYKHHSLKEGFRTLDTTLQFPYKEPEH
The target in data set [14] is ABL2 (Homo sapiens) (UniProt P42684). The source holds these as a separate data set.
In data set [15] the target is PIK3R3-NC (Homo sapiens) (UniProt Q92569).
The target in data set [16] is BMX (Homo sapiens) (UniProt P51813).
Sequence of BMX (Homo sapiens) (P51813 291-397): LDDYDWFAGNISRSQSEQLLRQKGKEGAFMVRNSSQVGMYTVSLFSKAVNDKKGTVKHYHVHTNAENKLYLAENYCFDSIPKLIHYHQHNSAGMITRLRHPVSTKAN
Data set [17] concerns the target PTPN11-N (Homo sapiens) (UniProt Q06124).
Data set [18] has as its target SH2D1A (Homo sapiens) (UniProt O60880).
Data set [19] concerns the target SHC3 (Homo sapiens) (UniProt Q92529).
The target in data set [20] is SOCS2 (Homo sapiens) (UniProt O14508).
Sequence of SOCS2 (Homo sapiens) (O14508 43-161): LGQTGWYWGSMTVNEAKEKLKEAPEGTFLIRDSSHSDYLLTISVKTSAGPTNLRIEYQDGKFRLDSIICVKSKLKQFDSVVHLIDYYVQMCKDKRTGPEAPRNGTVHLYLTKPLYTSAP
The target in data set [21] is GRB7 (Homo sapiens) (UniProt Q14451). The source holds these as a separate data set.
Sequence of GRB7 (Homo sapiens) (Q14451 426-532): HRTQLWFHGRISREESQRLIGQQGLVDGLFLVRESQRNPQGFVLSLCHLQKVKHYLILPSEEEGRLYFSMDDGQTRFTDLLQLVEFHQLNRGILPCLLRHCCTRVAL
The target of data set [22] is CRKL (Homo sapiens) (UniProt P46109).
Sequence of CRKL (Homo sapiens) (P46109 9-107): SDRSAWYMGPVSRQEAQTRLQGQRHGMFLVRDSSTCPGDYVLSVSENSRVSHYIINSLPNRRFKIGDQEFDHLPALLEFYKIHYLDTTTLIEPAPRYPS
Data set [23] deals with FGR (Homo sapiens) (UniProt P09769). The source holds these as a separate data set.
For data set [24], the target named is TEC (Homo sapiens) (UniProt P42680). This is another data set of the same source.
Sequence of TEC (Homo sapiens) (P42680 242-350): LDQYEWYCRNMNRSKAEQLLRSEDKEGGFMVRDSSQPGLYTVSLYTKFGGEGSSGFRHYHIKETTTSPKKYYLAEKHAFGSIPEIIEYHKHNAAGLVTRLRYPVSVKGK
Data set [25] has as its target BLK (Homo sapiens) (UniProt P51451).
The target in data set [26] is PLCG1-NC (Homo sapiens) (UniProt P19174). This is another data set of the same source.
Data set [27] has as its target CRK (Homo sapiens) (UniProt P46108).
Data set [28] addresses SLA (Homo sapiens) (UniProt Q13239). The source holds these as a separate data set.
For data set [29], the target named is SYK-NC (Homo sapiens) (UniProt P43405).
The target of data set [30] is PIK3R3-N (Homo sapiens) (UniProt Q92569).
In data set [31] the target is GRB7 (Homo sapiens) (UniProt Q14451). This is another data set of the same source.

Sequence of SLA (Homo sapiens) (Q13239 79-180): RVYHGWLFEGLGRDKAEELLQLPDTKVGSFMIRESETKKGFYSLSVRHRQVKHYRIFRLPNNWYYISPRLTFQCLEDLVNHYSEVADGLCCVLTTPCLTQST
Sequence of SH2D1A (Homo sapiens) (O60880 1-109): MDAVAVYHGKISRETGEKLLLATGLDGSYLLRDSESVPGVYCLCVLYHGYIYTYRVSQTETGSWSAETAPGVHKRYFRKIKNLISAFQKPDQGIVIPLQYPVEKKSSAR
Sequence of PIK3R1-C (Homo sapiens) (P27986 328-723): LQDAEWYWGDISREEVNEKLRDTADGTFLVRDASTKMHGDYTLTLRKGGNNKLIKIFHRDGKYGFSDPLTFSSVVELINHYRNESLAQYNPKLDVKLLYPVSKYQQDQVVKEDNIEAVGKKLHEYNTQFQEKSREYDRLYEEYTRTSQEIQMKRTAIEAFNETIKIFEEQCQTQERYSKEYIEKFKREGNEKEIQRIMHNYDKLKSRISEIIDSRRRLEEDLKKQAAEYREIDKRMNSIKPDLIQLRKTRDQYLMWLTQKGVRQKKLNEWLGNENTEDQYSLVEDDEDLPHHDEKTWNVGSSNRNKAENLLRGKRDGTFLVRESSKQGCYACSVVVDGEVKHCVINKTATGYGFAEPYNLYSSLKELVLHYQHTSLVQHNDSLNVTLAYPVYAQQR
Sequence of PIK3R2-NC (Homo sapiens) (O00459 325-721): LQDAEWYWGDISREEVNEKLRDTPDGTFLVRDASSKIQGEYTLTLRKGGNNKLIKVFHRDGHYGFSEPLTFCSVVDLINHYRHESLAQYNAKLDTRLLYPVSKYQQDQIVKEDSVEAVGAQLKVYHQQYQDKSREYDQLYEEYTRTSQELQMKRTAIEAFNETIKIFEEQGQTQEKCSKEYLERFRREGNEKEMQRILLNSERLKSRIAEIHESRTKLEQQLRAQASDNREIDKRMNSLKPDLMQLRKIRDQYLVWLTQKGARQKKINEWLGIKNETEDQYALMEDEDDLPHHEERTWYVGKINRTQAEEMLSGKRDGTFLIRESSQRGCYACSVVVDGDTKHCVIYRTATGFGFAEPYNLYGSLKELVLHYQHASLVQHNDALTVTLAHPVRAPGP
Sequence of CRK (Homo sapiens) (P46108 8-123): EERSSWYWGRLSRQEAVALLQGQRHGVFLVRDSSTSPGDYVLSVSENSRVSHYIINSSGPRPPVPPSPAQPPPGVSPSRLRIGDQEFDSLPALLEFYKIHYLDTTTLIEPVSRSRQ
Sequence of SHC3 (Homo sapiens) (Q92529 494-594): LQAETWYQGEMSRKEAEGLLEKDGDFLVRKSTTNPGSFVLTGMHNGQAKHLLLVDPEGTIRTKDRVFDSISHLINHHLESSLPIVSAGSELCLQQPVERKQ
Sequence of BLK (Homo sapiens) (P51451 119-225): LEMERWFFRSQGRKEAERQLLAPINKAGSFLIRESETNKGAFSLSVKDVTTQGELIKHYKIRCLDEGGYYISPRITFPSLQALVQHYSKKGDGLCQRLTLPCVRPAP

With …pYEEMRAFQ, the apparent Kd (screen) was 999 nM in [1]; 86 nM in data set [2]; 2000 nM in data set [3]; 2000 nM in [4]; 64 nM in data set [5]; 499 nM in data set [6]. Besides, the apparent Kd (screen) in data set [7] was 44 nM.
As for …pYWDQDPPE, the apparent Kd (screen) in data set [8] was 1600 nM; in [9] it was 253 nM; in [10], 1780 nM; in data set [11], 2000 nM; in data set [12], 2000 nM; in data set [13], 2000 nM. Moreover, the apparent Kd (screen) is 192 nM in data set [14]; 783 nM in data set [15]; 2000 nM in data set [16]; 2000 nM in [17]; 2000 nM in data set [18]; 1710 nM in data set [19].
Consider …pYLVPQQGF, for which the apparent Kd (screen) in data set [20] was 2000 nM; in data set [21], 1800 nM; in data set [22] it was 2000 nM; in [23], 2000 nM; in data set [24], 2000 nM; in data set [25], 597 nM. The apparent Kd (screen) in [26], in data set [27] and in [28] was 2000 nM each time.
Turning to …pYLIPQQGFd, the apparent Kd (screen) was 534 nM in data set [29], 470 nM in data set [30] and 2000 nM in data set [31].
